Measurements reported in patent publication US20110293648A1 (LUDWIG INSTITUTE FOR CANCER RESEARCH, published 2011).
Blank lines part the entries; values can stand above or below the molecule they belong to.

Tests used:
MHC class I = assay: flow cytometry, staining of an EBV cell line (internal control)
HLA-DR = assay: as above
HLA-DRB1*0301 [1] = target: HLA-DRB1*0301 (human); assay: cell-based or functional assay
HLA-DRB1*1501 = target: T1, HLA-DRB1*1501 (human); assay: not specified ('The methods described above')
T1 construct: whole, on cells; On Me 290 cells in the ELISPOT assay

HLA-DRB1*0101 = target: T2, HLA-DRB1*0101 (human); assay: not specified ('The methods described above')
T2 construct: Only the beta allele is printed

HLA-DRB1*1101 = target: T3, HLA-DRB1*1101 (human); assay: not specified ('The methods described above')
T3 construct: whole, on cells; On antigen presenting cells in the ELISPOT assays

HLA-DRB5*0101 = target: T4, HLA-DRB5*0101 (human); assay: not specified ('The methods described above')
T4 construct: whole, on cells; On Me 290 cells in the ELISPOT assay

HLA-DRB1*0701 = target: T5, HLA-DRB1*0701 (human); assay: not specified ('The methods described above')
T5 construct: whole, on cells; On LCL 40 or homozygous EBV line BH in the T cell assays

HLA-DRB1*0301 [2] = target: T6, HLA-DRB1*0301 (human); assay: not specified ('The methods described above')
T6 construct: whole, on cells; also called DR3; HLA-DR3

MFI (MHC class I): 271 MFI
Molecule: anti-pan MHC-I antibody clone W6/32

MFI (HLA-DR): 787 MFI
Molecule: anti-HLA-DR antibody clone L243

cross-recognition by SSX-2 specific, DR3 restricted CD4+ T cells, peptide titration, IFN-gamma ELISA; efficiency against SSX-2 37-51 (HLA-DRB1*0301 [1]): ~10 fold less efficiently
Molecule: WEKMKSSEKIVYVYM [SSX-4 37-51 peptide]

cross-recognition by SSX-2 specific, DR3 restricted CD4+ T cells, peptide titration, IFN-gamma ELISA; efficiency against SSX-2 37-51 (HLA-DRB1*0301 [1]): ~3 fold less efficiently
Molecule: WEKMKASEKIFIVYM [SSX-5 37-51 peptide]

binding result (HLA-DRB1*1501): binds
binding result (HLA-DRB1*0101): binds
binding result (HLA-DRB1*1101): binds
binding result (HLA-DRB5*0101): binds
B1: SSX-2 peptide p98-112 (peptide)
peptide: QMTFGRLQGISPKIM
notes: also called p98-111 (as printed once); SSX-2 98-112

binding result (HLA-DRB1*0701): binds
binding result (HLA-DRB1*0301 [2]): binds
Molecule: FGRLQGISPKIMPKK [SSX-2 peptide p101-115]
